Three molecules from patent US20260248939A1 (SYNAFFIX B V, published 2026) can be followed below.

The target in test [1] is T1, Human PTK7 (CCK4 protein, ECD, His Tag, Sino Biological) (human, UniProt Q13308 31-704).
T1 construct: extracellular domain; Bought protein; also called hPTK7; HPTK7; not shown: His tag
T1 sequence (looked up): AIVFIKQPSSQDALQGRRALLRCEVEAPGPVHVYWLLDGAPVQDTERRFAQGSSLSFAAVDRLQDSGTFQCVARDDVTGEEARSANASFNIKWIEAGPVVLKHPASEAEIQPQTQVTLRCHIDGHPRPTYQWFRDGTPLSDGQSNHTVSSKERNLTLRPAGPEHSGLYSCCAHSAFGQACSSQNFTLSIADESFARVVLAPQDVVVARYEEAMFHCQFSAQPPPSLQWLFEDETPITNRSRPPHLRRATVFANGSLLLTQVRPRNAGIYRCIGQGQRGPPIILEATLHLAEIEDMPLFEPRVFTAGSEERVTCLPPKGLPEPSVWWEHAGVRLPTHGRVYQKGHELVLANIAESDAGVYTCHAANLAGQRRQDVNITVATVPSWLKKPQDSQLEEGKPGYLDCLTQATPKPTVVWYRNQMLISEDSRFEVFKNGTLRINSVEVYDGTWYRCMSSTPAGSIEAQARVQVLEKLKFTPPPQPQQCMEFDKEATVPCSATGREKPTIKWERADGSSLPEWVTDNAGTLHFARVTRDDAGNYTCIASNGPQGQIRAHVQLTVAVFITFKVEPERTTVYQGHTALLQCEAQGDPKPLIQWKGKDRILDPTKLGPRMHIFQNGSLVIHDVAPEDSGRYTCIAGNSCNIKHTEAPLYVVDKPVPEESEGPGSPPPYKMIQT
Put plainly: ELISA: His-tagged PTK7 on nickel plate, ADC at 8 µg/mL (Example 25), goat anti-human IgG-HRP, TMB, absorbance at 652 nm, background-corrected.

Test [2] deals with T2, cynomolgus PTK7 (CCK4 protein, ECD, His Tag, Sino Biological) (cynomolgus, UniProt A0A2K5VNI5 39-712).
T2 construct: extracellular domain; Bought protein; also called cPTK7; cyno PTK7; not shown: His tag
T2 sequence: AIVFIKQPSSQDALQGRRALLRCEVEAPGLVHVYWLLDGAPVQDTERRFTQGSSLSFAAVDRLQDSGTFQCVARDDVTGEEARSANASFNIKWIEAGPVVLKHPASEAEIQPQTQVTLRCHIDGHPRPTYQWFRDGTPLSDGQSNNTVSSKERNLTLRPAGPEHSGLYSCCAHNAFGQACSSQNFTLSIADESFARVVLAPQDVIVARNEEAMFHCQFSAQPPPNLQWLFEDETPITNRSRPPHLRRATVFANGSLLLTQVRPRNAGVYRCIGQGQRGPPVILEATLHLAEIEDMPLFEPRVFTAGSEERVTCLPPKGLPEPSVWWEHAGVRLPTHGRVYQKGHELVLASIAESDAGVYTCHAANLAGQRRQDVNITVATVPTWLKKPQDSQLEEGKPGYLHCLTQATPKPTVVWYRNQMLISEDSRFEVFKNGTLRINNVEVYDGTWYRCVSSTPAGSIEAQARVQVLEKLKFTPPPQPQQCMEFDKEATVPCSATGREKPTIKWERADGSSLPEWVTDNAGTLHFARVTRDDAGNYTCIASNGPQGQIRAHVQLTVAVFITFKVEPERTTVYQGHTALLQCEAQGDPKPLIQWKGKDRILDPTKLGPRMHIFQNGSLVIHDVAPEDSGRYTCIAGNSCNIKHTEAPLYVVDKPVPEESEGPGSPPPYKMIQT
The description is as above.

The target in test [3] is T3, Rat PTK7 (His Tag, Acro Biosystems) (rat, UniProt A0A8I6ALM9 40-713).
T3 construct: Bought protein; also called rPTK7; not shown: His tag
The description is as above.

Test [4] deals with T1, Human PTK7 (CCK4 protein, ECD, His Tag, …). As to the kind of experiment: ELISA: His-tagged hPTK7 on nickel plate, ADC at 8 µg/mL (Example 25), goat anti-human IgG-HRP, TMB, absorbance at 652 nm, background-corrected. A general note: An ELISA detects its analyte on a solid surface through an enzyme-linked reagent.

B1: 12C6a-3 (antibody, human IgG1, kappa, V domains shown)
VH: VQLVQSGGGLVHPGGSLRLSCAGSGFTFSTYLMYWVRQAPGKTLEWVSAIGSGGDTYYADSVKGRFTISRDNAKNSLYLQMNSLRAEDMAVYYCARGLGYWGQGTLVTVSS
VL: DIQMTQSPSSLSASVGDRVTITCRASQGISSWLAWYQQKPEKAPKSLIYAASSLQSGVPSRFSGSGSGTDFTLTISSLQPEDFATYYCQQYNSYPYTFGQGTKLEIKR
modifications: heavy-chain N-glycan trimmed to core GlcNAc, extended with 6-N3-GalNAc and clicked to BCN-HS-PEG2-HS-(va-PAB-Ex)2 (linker-drug 3, exatecan); average DAR 3.90
notes: Antibody-drug conjugate of IgG 12C6a (V)
Turning to B1, the binding result in test [1], in test [2] and in test [3] was “no binding (tested: 8 µg/mL)” in each case.

B2: B12-3 (antibody, human IgG1, kappa, V domains shown)
VH: QVQLVQSGAEVKKPGASVKVSCQASGYRFSNFVIHWVRQAPGQRFEWMGWINPYNGNKEFSAKFQDRVTFTADTSANTAYMELRSLRSADTAVYYCARVGPYSWDDSPQDNYYMDVWGKGTTVIVSS
VL: EIVLTQSPGTLSLSPGERATFSCRSSHSIRSRRVAWYQHKPGQAPRLVIHGVSNRASGISDRFSGSGSGTDFTLTITRVEPEDFALYYCQVYGASSYTFGQGTKLERKR
notes: also called B12 (VI) conjugated with linker-drug 3; isotype control ADC
As for B2, the binding result in test [4] was “no binding (tested: 8 µg/mL)”.

B3: 4D5-3 (antibody, human IgG1, kappa, V domains shown)
VH: QVQLVESGGGVVQPGRSLRLSCAASGFTFSSYAFHWVRQAPGKGLEWVAVISYDGSIKYYADSVKGRFTISRDNSKNTLYLQMNSLRAEDTAVYYCARTYYFDYWGQGTLVTVSS
VL: EIVLTQSPDFQSVTPKEKVTITCRASQSIGSSLHWYQQKPDQSPKLLIKYASQSFSGVPSRFSGSGSGTDFTLTINSLEAEDAAAYYCHQSSSLPITFGQGTRLEIKR
modifications: heavy-chain N-glycan trimmed to core GlcNAc, extended with 6-N3-GalNAc and clicked to BCN-HS-PEG2-HS-(va-PAB-Ex)2 (linker-drug 3, exatecan); average DAR 3.91
Regarding B3, the binding result in test [1] is “binds”; in test [3], “no binding (tested: 8 µg/mL)”.
